The test system of assay [1] is HEK293FT cells transfected with TF library. In words: Screening of TF condensates based on fluorescent puncta. The format is cell-based. The note with it: Figure 1B numerical data; TF library screen, one value per transcriptional factor. An outline of the steps: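 Condensate formation is scored as Alexa 488-labelled puncta after Flag- or GAL4-tag immunostaining of fixed HEK293FT cells expressing individual TFs, with a 12 h glucose-free or glucose-containing culture preceding fixation.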

The test system of the next assay is GFP-TEAD4 condensates. In words: siRNA screening based on TEAD4 condensate. The format is cell-based. The note with it: Figure 2B source data; siRNA against the named gene; Z score based analysis. As to the method: siRNA reagents were obtained from the Dharmacon Human ON-TARGETplus siRNA Smartpool Library (Thermo) as described previously (Tang et al, [2020]). […] Lipofectamine RNAiMAX reagent (Thermo) at a volume of 0.05 μl per well was then added to the siRNA-loaded plates. Subsequently, cells expressing GFP-TEAD4 were seeded into the plate at 2000 cells per well. After subsequent transfection for 48 h, the cells were fixed with 4% PFA at room temperature for 30 min. DAPI was used to identify individual nuclei. The plates were kept at 4 °C in the dark before being analyzed using the Opera system. Twenty focus fields per well were scanned and analyzed. Scrambled siRNA was used as an internal reference on each plate.

The test system of a further assay is HGC-27 cells. In words: siRNA screening based on cell growth. Set-up: species or system human. The note with it: Figure 2B source data; siRNA against the named gene; Z score based analysis. As to the method: For screening based on cell growth, HGC-27 cells (2000 per well) were seeded into a 96-well plate overnight. The individual siRNAs targeting 192 BioID-identified genes were then added into each well to a final concentration of 25 nM. After subsequent incubation for 48 h, the cells were analyzed using an ATP-based CellCounting-Lite^TM 2.0 reagent (Vazyme, Nanjing, China) according to the manufacturer’s instructions. The intracellular ATP contents were measured using an EnSight™ Multimode Microplate Reader (Perkin Elmer).

Assay [2] deals with GFP-TEAD4 condensates in HEK293FT cells. Nature of the assay: GFP-TEAD4 condensate imaging, condensed fraction in cells. In kind it is cell-based. The note with it: Figure 2D source data, GFP-TEAD4 condensates with co-expressed cofactor, with or without 1,6-Hex, single measurement.

B1: CRSP9 (protein, UniProt O43513 1-233, looked up)
Mediator of RNA polymerase II …: MGEPQQVSALPPPPMQYIKEYTDENIQEGLAPKPPPPIKDSYMMFGNQFQCDDLIIRPLESQGIERLHPMQFDHKKELRKLNMSILINFLDLLDILIRSPGSIKREEKLEDLKLLFVHVHHLINEYRPHQARETLRVMMEVQKRQRLETAERFQKHLERVIEMIQNCLASLPDDLPHSEAGMRVKTEPMDADDSNNCTGQNEHQRENSGHRRDQIIEKDAALCVLIDEMNERP
In the case of B1, the “Z score of condensed fraction” value in assay [1] is given as -0.379.

B2: CRSP6 (protein, UniProt Q9NVC6 1-651, looked up)
Mediator of RNA polymerase II …: MSGVRAVRISIESACEKQVHEVGLDGTETYLPPLSMSQNLARLAQRIDFSQGSGSEEEEAAGTEGDAQEWPGAGSSADQDDEEGVVKFQPSLWPWDSVRNNLRSALTEMCVLYDVLSIVRDKKFMTLDPVSQDALPPKQNPQTLQLISKKKSLAGAAQILLKGAERLTKSVTENQENKLQRDFNSELLRLRQHWKLRKVGDKILGDLSYRSAGSLFPHHGTFEVIKNTDLDLDKKIPEDYCPLDVQIPSDLEGSAYIKVSIQKQAPDIGDLGTVNLFKRPLPKSKPGSPHWQTKLEAAQNVLLCKEIFAQLSREAVQIKSQVPHIVVKNQIISQPFPSLQLSISLCHSSNDKKSQKFATEKQCPEDHLYVLEHNLHLLIREFHKQTLSSIMMPHPASAPFGHKRMRLSGPQAFDKNEINSLQSSEGLLEKIIKQAKHIFLRSRAAATIDSLASRIEDPQIQAHWSNINDVYESSVKVLITSQGYEQICKSIQLQLNIGVEQIRVVHRDGRVITLSYQEQELQDFLLSQMSQHQVHAVQQLAKVMGWQVLSFSNHVGLGPIESIGNASAITVASPSGDYAISVRNGPESGSKIMVQFPRNQCKDLPKSDVLQDNKWSHLRGPFKEVQWNKMEGRNFVYKMELLMSALSPCLL
As for B2, the “Z score of condensed fraction” value in assay [1] is recorded as -0.7101.

B3: CRY1 (protein, UniProt Q16526 1-586, looked up)
Cryptochrome-1: MGVNAVHWFRKGLRLHDNPALKECIQGADTIRCVYILDPWFAGSSNVGINRWRFLLQCLEDLDANLRKLNSRLFVIRGQPADVFPRLFKEWNITKLSIEYDSEPFGKERDAAIKKLATEAGVEVIVRISHTLYDLDKIIELNGGQPPLTYKRFQTLISKMEPLEIPVETITSEVIEKCTTPLSDDHDEKYGVPSLEELGFDTDGLSSAVWPGGETEALTRLERHLERKAWVANFERPRMNANSLLASPTGLSPYLRFGCLSCRLFYFKLTDLYKKVKKNSSPPLSLYGQLLWREFFYTAATNNPRFDKMEGNPICVQIPWDKNPEALAKWAEGRTGFPWIDAIMTQLRQEGWIHHLARHAVACFLTRGDLWISWEEGMKVFEELLLDADWSINAGSWMWLSCSSFFQQFFHCYCPVGFGRRTDPNGDYIRRYLPVLRGFPAKYIYDPWNAPEGIQKVAKCLIGVNYPKPMVNHAEASRLNIERMKQIYQQLSRYRGLGLLASVPSNPNGNGGFMGYSAENIPGCSSSGSCSQGSGILHYAHGDSQQTHLLKQGRSSMGTGLSGGKRPSQEEDTQSIGPKVQRQSTN
As to B3, in assay [1], the “Z score of condensed fraction” value is -0.5227.

B4: TEAD4 (protein, UniProt Q15561 1-434, looked up)
Transcriptional enhancer …: MEGTAGTITSNEWSSPTSPEGSTASGGSQALDKPIDNDAEGVWSPDIEQSFQEALAIYPPCGRRKIILSDEGKMYGRNELIARYIKLRTGKTRTRKQVSSHIQVLARRKAREIQAKLKDQAAKDKALQSMAAMSSAQIISATAFHSSMALARGPGRPAVSGFWQGALPGQAGTSHDVKPFSQQTYAVQPPLPLPGFESPAGPAPSPSAPPAPPWQGRSVASSKLWMLEFSAFLEQQQDPDTYNKHLFVHIGQSSPSYSDPYLEAVDIRQIYDKFPEKKGGLKDLFERGPSNAFFLVKFWADLNTNIEDEGSSFYGVSSQYESPENMIITCSTKVCSFGKQVVEKVETEYARYENGHYSYRIHRSPLCEYMINFIHKLKHLPEKYMMNSVLENFTILQVVTNRDTQETLLCIAYVFEVSASEHGAQHHIYRLVKE
Regarding B4, the “Z score of condensed fraction” value in assay [1] was determined as 3.255; in the assay on GFP-TEAD4 condensates it was 1.0247. Further, the “Z score of cell growth” value in the assay with HGC-27 cells is recorded as 0.6975.

B5: RFXANK (protein)
chain: MELTQPAEDLIQTQQTPASELGDPEDPGEEAADGSDTVVLSLFPCTPEPVNPEPDASVSSPQAGSSLKHSTTLTNRQRGNEVSALPATLDSLSIHQLAAQGELDQLKEHLRKGDNLVNKPDERGFTPLIWASAFGEIETVRFLLEWGADPHILAKERESALSLASTGGYTDIVGLLLERDVDINIYDWNGGTPLLYAVRGNHVKCVEALLARGADLTTEADSGYTPMDLAVALGYRKVQQVIENHILKLFQSNLVPADPE
Turning to B5, the Condensed fraction came to 37.5428% in assay [2] (replicate 1 of 9); 33.3337% in assay [2] (replicate 2 of 9); 44.4467% in assay [2] (replicate 3 of 9); 47.0652% in assay [2] (replicate 4 of 9); 51.3041% in assay [2] (replicate 5 of 9); 37.5405% in assay [2] (replicate 6 of 9). The Condensed fraction came out at 26.519% in assay [2] (replicate 7 of 9), 36.7045% in assay [2] (replicate 8 of 9) and 37.5001% in assay [2] (replicate 9 of 9). For the same molecule, in the assay with GFP-TEAD4 condensates, the “Z score of condensed fraction” value is recorded as -3.941. Further, the “Z score of cell growth” value with HGC-27 cells amounted to 3.094.
